{"source": "patent US20110294144", "proteins": {"B1": {"name": "human PRKX (hPRKXkai), overexpressed from pPRKXkai plasmid or PRKX overexpression lentivirus (protein)", "chain": "MEAPGLAQAAAAESDSRKVAEETPDGAPALCPSPEALSPEPPVYSLQDFDTLATVGTGTFGRVHLVKEKTAKHFFALKVMSIPDVIRLKQEQHVHNEKSVLKEVSHPFLIRLFWTWHDERFLYMLMEYVPGGELFSYLRNRGRFSSTTGLFYSAEIICAIEYLHSKEIVYRDLKPENILLDRDGHIKLTDFGFAKKLVDRTWTLCGTPEYLAPEVIQSKGHGRAVDWWALGILIFEMLSGFPPFFDDNPFGIYQKILAGKIDFPRHLDFHVKDLIKKLLVVDRTRRLGNMKNGANDVKHHRWFRSVDWEAVPQRKLKPPIVPKIAGDGDTSNFETYPENDWDTAAPVPQKDLEIFKNF"}, "B2": {"name": "inactive PRKX protein without kinase activity (D172A), overexpressed from pD172A plasmid or D172A overexpression lentivirus (protein)", "chain": "B1 chain with D172A"}}, "key": {"[1]": {"biological_target": "wild-type human tau overexpressed in H4-tau cells"}, "[2]": {"biological_target": "endogenous tau of rat primary nerve cells, P19332", "sequence (P19332 2-752)": "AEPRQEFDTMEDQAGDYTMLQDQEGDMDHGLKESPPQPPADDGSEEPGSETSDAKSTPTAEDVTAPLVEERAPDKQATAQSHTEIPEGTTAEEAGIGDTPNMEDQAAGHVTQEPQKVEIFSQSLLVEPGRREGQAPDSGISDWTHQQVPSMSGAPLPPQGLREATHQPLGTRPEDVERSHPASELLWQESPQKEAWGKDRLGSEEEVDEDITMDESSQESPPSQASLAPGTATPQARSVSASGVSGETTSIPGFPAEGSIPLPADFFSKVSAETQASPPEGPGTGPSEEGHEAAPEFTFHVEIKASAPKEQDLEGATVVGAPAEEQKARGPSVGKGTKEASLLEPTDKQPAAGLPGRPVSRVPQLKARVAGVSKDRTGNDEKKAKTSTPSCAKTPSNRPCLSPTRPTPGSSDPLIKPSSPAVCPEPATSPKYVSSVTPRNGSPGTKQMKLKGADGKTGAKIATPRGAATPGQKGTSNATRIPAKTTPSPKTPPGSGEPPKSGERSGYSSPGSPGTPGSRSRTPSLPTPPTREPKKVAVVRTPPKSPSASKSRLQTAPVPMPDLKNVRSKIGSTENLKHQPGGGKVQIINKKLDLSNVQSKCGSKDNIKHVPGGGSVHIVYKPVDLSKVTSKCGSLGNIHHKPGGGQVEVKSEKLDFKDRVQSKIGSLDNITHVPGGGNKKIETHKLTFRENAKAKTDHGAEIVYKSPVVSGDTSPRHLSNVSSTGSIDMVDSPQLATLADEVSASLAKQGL"}}, "note": "Residue numbers refer to the chain shown, from its start. Numbers in names are those of the source.", "data": [{"protein": "B1", "values": [{"measurement": "S214 phosphorylation of tau, Western blot, 0.02 µg PRKX expression plasmid", "setting": "[1]", "result": "1.3-fold, 1.9-fold and 2.9-fold enhanced S214 phosphorylation was found in the cells incorporating 0.02 µg, 0.06 µg and 0.2 µg of PRKX expression plasmid, respectively"}, {"measurement": "S214 phosphorylation of tau, Western blot, 0.06 µg PRKX expression plasmid", "setting": "[1]", "result": "1.3-fold, 1.9-fold and 2.9-fold enhanced S214 phosphorylation was found in the cells incorporating 0.02 µg, 0.06 µg and 0.2 µg of PRKX expression plasmid, respectively"}, {"measurement": "S214 phosphorylation of tau, Western blot, 0.2 µg PRKX expression plasmid", "setting": "[1]", "result": "1.3-fold, 1.9-fold and 2.9-fold enhanced S214 phosphorylation was found in the cells incorporating 0.02 µg, 0.06 µg and 0.2 µg of PRKX expression plasmid, respectively"}, {"measurement": "amount of S214 phosphorylated tau in the total tau, ELISA, 0.02 µg PRKX expression plasmid", "setting": "[1]", "result": "2.5-fold, 3.4-fold and 5.8-fold enhanced S214 phosphorylation was found in the cells incorporating 0.02 µg, 0.06 µg and 0.2 µg of PRKX expression plasmid, respectively"}, {"measurement": "amount of S214 phosphorylated tau in the total tau, ELISA, 0.06 µg PRKX expression plasmid", "setting": "[1]", "result": "2.5-fold, 3.4-fold and 5.8-fold enhanced S214 phosphorylation was found in the cells incorporating 0.02 µg, 0.06 µg and 0.2 µg of PRKX expression plasmid, respectively"}, {"measurement": "amount of S214 phosphorylated tau in the total tau, ELISA, 0.2 µg PRKX expression plasmid", "setting": "[1]", "result": "2.5-fold, 3.4-fold and 5.8-fold enhanced S214 phosphorylation was found in the cells incorporating 0.02 µg, 0.06 µg and 0.2 µg of PRKX expression plasmid, respectively"}, {"measurement": "amount of S214 phosphorylated tau, ELISA, PRKX lentivirus MOI 1", "setting": "[2]", "result": "3.0-fold, 4.2-fold and 6.3-fold enhanced amounts of S214 phosphorylated tau were found in the cells infected with PRKX overexpression lentivirus at MOI-1, 3 and 6, respectively"}, {"measurement": "amount of S214 phosphorylated tau, ELISA, PRKX lentivirus MOI 3", "setting": "[2]", "result": "3.0-fold, 4.2-fold and 6.3-fold enhanced amounts of S214 phosphorylated tau were found in the cells infected with PRKX overexpression lentivirus at MOI-1, 3 and 6, respectively"}, {"measurement": "amount of S214 phosphorylated tau, ELISA, PRKX lentivirus MOI 6", "setting": "[2]", "result": "3.0-fold, 4.2-fold and 6.3-fold enhanced amounts of S214 phosphorylated tau were found in the cells infected with PRKX overexpression lentivirus at MOI-1, 3 and 6, respectively"}]}, {"protein": "B2", "values": [{"measurement": "S214 phosphorylation of tau, Western blot and ELISA", "setting": "[1]", "result": "enhanced S214 phosphorylation was not found in pD172A tranfected cell"}, {"measurement": "amount of S214 phosphorylated tau, ELISA, D172A lentivirus MOI 1, 6", "setting": "[2]", "result": "D172A overexpression lentivirus and lacZ overexpression lentivirus did not show an enhanced amount of S214 phosphorylated tau"}]}]}
